Assay [1] concerns the target T1, ICOS (Inductible T cell costimulator) (UniProt Q9Y6W8 21-199, limits assumed).
T1 construct: whole, on cells; also called ICOS on JICOS.1 cells
T1 sequence (looked up): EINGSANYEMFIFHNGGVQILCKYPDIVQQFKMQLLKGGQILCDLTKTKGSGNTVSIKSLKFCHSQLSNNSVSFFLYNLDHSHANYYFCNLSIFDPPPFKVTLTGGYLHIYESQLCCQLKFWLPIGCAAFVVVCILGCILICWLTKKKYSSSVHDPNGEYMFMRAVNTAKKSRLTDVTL
The assay is described as follows: flow cytometry on JICOS.1 cells (ICOS transfectants), mAb titration revealed with GAM-PE; printed as [ED] 50. As to the method:
(§1) The inventors developed 5 anti-ICOS Abs. Their isotype was assayed by ELISA. For obtaining an indirect analysis of their affinity for their receptor, mAbs were tested using stable transfectants expressing ICOS. JICOS.1 cells were in the presence of an increasing range of anti-ICOS mAbs labeled with a probe coupled to a fluorochrome (PE-GAM: Goat anti mouse-PE) and the analysis was made thanks to cytometry flow.
Background: In flow cytometry, cells or beads pass a laser one at a time.

In assay [2] the target is T1, ICOS (Inductible T cell costimulator). The assay is described as follows: flow cytometry on JICOS.1 cells, inhibition of ICOS L-Fc binding to ICOS, revealed with GAH-PE; printed as [ID] 50. The text has this:
(§2) They used a gradient of concentration of anti-ICOS mAbs and theyr reveled the fixation to ICOS L Fc thanks to a probe coupled to a fluorochrom (GAH-PE: Goat anti-human-PE). The analysis was made by flow cytometry.

Assay [3] has the same target. The assay is described as follows: flow cytometry on JICOS.1 cells, mAb titration revealed with GAM-PE; printed as ED 50. The method, then: as §1
The target is the same in assay [4]. The assay is described as follows: flow cytometry on JICOS.1 cells, inhibition of ICOS L-Fc binding to ICOS; printed as ID 50.
From the text: as §2

A word on the EC50: it is the concentration at which the effect is half-maximal. High values mean weaker potency, low ones greater potency. What is called IC50 is the concentration that gives 50% inhibition. Low values mean greater potency, high ones weaker potency.

B1: ICOS 88-2 (antibody, V domains shown)
VH: QVQLQQPGAELVRPGASVKLSCKASGYSFTSYWINWVKQRPGQGLEWIGNIYPSDSYTNYNQMFKDKATLTVDKSSNTAYMQLTSPTSEDSAVYYCTRWNLSYYFDNNYYLDYWGQGTTLTVSS
VL: DIVMTQAAPSVPVTPGESVSISCRSSKSLLHSNGNTYLYWFLQRPGQSPQLLIYRMSNLASGVPDRFSGSGSGTAFTLRISRVEAEDVGVYYCMQHLEYPWTFGGGTKLEIK
notes: Mouse hybridoma monoclonal antibody; isotype printed as IgG1-L; Agonist of ICOS; also called anti-ICOS mAb 88-2
In turn, B1 returned an EC50 in assay [1] of 1.6 µg/mL. The molecule also registered an IC50 in assay [2] of 17 µg/mL.

B2: ICOS 314-8 (antibody, V domains shown)
VH: QVQLQQPGTELMKPGASVKLSCKASGYTFTTYWMHWVKQRPGQGLEWIGEIDPSDSYVNYNQNFKGKATLTVDKSSSTAYIQLSSLTSEDSAVYFCARSPDYYGTSLAWFDYWGQGTLVTVST
VL: DIVMTQAAPSVPVTPGESVSISCRSSKSPLHSNGNIYLYWFLQRPGQSPQLLIYRMSNLASGVPDRFSGSGSGTTFTLKISRVEAEDVGVYYCMQHLEYPYTFGGGTKLEIK
notes: Mouse hybridoma monoclonal antibody; isotype printed as IgG1-K; Antagonist of ICOS
With B2, the figures for the EC50 in assay [3] and in assay [1] were less than 0.5 µg/mL and 0.06 µg/mL, respectively. The values for the IC50 in assay [4] and in assay [2] were less than 1000 µg/mL and 0.29 µg/mL, respectively.

The record behind these values is patent US20160264666A1 (INSERM INSTITUT NATIONAL DE LA SANTE ET DE LA RECHERCHE …, published 2016).
